In assay [1] the target is T1, recombinant KIT D4/D5 polypeptide (D4/D5 region of human KIT, V308 to H515, with 5xHis tag) (human, UniProt P10721 26-519).
T1 construct: also called recombinant antigen; recombinant IG domain four and five of the extracellular region of KIT
Put plainly: binding assays on the D4/D5 region of human KIT (solid phase ELISA); IgG version of Fab Ab1 (Dyax reformatting), Example 2. For orientation: ELISA stands for enzyme-linked immunosorbent assay.

The target in assay [2] is T2, full-length, wild-type human KIT (human, UniProt P10721 26-976). Nature of the assay: cell-based or functional assay.
T2 sequence (P10721 other isoform, or with tags, fused parts or gaps limits assumed): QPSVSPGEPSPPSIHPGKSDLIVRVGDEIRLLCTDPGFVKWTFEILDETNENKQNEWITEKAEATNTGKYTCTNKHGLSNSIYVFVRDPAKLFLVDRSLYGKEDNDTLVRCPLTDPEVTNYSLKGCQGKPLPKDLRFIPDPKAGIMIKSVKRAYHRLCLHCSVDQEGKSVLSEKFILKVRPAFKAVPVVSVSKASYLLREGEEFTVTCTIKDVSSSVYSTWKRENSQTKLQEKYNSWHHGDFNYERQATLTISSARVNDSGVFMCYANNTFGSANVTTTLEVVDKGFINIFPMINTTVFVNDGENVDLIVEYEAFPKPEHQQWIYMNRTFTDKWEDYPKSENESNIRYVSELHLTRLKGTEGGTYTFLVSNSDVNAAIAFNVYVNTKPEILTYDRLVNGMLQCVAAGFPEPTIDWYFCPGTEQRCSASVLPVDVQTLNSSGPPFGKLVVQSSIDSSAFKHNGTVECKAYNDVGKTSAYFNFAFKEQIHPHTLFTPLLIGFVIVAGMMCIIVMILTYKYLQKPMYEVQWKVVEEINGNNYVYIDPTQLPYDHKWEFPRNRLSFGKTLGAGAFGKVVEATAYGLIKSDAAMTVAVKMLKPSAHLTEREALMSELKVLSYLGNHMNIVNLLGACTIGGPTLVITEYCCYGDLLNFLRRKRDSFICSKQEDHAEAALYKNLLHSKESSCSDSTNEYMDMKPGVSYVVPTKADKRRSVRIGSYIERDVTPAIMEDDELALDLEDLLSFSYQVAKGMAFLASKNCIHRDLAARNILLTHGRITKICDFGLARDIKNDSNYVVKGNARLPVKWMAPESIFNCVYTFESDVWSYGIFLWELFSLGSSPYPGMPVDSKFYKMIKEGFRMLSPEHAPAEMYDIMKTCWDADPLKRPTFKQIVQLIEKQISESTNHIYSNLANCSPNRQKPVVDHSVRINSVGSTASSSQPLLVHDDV
Assay [3] has as its target T2, full-length, wild-type human KIT. Put plainly: immunofluorescence staining with Ab1-Alexa488 on CHO/KIT and NIH3T3/KIT cells, confocal microscopy. How it is done:
Immunofluorescence staining assays were carried to determine if antibody Ab1 was internalized by cells. The immunofluorescence staining assays were carried out essentially as described below. Materials and reagents for the immunofluorescence assays include the following: [0745] Tissue culture slides: Poly-D-Lysine coated four or eight well chamber slide [0746] Antibody: Antibody Ab1 conjugated with the fluorescent dye Alexa-488 (Invitrogen) [0747] Fixative: 4% paraformaldehyde; store 40% PFA microscopy grade in fridge and dilute 1:10 with PBS just before use [0748] Mounting media: Prolong Gold antifade+DAPI [0749] CHO cells engineered to express exogenous human, wild-type KIT (full-length) (“CHO/KIT”) [0750] NIH3T3 cells engineered to express exogenous human, wild-type KIT (full-length) [0751] (“NIH3T3/KIT”)
15,000 to 30,000 CHO/KIT cells or NIH3T3/KIT cells were seeded into each well of the tissue culture slide. The cells were cultivated for at least 24 hrs before starvation in media containing no fetal bovin serum overnight. Ab1-Alexa488 was diluted in starvation media containing 1% bovine serum albumin and pipetted onto the cell layer. 5 to 60 min later, cell layers were washed once with PBS (room temperature). Cell layers were fixed for 18 min with fixative at room temperature, and were washed 3 times with PBS. […] Internalization of the antibody was analyzed by confocal microscopy.

In assay [4] the target is T3, recombinant D5 domain polypeptide of human KIT (N410 to H515, with His tag) (human, UniProt P10721 26-519).
T3 construct: also called D5 domain of human KIT
T3 sequence (P10721 other isoform, or with tags, fused parts or gaps limits assumed): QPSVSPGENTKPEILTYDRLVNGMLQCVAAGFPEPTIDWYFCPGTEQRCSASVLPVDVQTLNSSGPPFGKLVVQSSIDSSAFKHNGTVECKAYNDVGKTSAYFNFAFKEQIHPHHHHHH
Put plainly: solid phase ELISA, D5 polypeptide coated on plate.

T1 sequence (P10721 other isoform, or with tags, fused parts or gaps limits assumed): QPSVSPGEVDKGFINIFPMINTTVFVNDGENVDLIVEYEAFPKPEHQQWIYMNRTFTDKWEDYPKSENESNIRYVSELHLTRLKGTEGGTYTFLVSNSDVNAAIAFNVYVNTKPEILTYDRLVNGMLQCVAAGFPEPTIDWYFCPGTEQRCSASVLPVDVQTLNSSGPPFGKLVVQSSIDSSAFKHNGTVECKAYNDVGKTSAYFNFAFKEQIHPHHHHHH

B1: IgG version of Fab antibody Ab1 (antibody, V domains shown)
VH: EVQLLESGGGLVQPGGSLRLSCAASGFTFSNYLMSWVRQAPGKGLEWVSSIVPSGGFTHYADSVKGRFTISRDNSKNTLYLQMNSLRAEDTAVYYCARLQTGSWRVHAFDIWGQGTMVTVSS
VL: DIQMTQSPTSLSAFVGDRVTITCQASQDIGNYLNWYQQKSGEPPKLLVYDASFLKKGVPSRFSGSGSGTQYFLTIYSLQPEDFATYFCQHSDNLSVTFGGGTKVEVK
notes: Variable regions of Fab Ab1 cloned into the Dyax pR vector
As usually defined, the EC50 is the concentration giving half of the maximal effect. Take B1: the EC50 in assay [1] was ~0.007 nM. Further, in assay [2], the “IC50 of inhibition of KIT phosphorylation (phospho-KIT assay)” value was ~2.5 nM.

B2: Antibody Ab1 conjugated with the fluorescent dye Alexa-488 (antibody, V domains shown)
VH: B1 VH
VL: B1 VL
modifications: conjugated with the fluorescent dye Alexa-488 (chain and site not stated)
notes: also called Ab1-Alexa488
As to B2, in assay [3], the binding result is given as “binds”.

B3: Fab antibody Ab19 (Fab, V domains shown)
VH: EVQLLESGGGLVQPGGSLRLSCAASGFTFSNYQMQWVRQAPGKGLEWVSSIRPSGGSTQYADSVKGRFTISRDNSKNTLYLQMNSLRAEDTAVYYCARGSSHAFDIWGQGTMVTVSS
VL: DIQMTQSPGTLSLSPGERATLSCRASQSFRSSYLAWYQQKPGQAPRLLIYDTSTRATGIPDRFSGSGSGTDFTLTISRLEPEDFAVYYCQQYGSSPPMYTFGQGTKLEIK
notes: Fab from a phage library
Regarding B3, the binding result in assay [4] is “binds”.

The values above are taken from patent US20130011406A1 (KOLLTAN PHARMACEUTICALS, published 2013).
